The target of assay [1] is T1, human PTPRD ECD-His6 (human, UniProt P23468 21-1265).
T1 construct: human PTPRD (receptor-type protein tyrosine phosphatase delta) extracellular domain; No catalogue number printed; also called PTPRδ; source: bought: ACROBiosystems
T1 sequence (looked up): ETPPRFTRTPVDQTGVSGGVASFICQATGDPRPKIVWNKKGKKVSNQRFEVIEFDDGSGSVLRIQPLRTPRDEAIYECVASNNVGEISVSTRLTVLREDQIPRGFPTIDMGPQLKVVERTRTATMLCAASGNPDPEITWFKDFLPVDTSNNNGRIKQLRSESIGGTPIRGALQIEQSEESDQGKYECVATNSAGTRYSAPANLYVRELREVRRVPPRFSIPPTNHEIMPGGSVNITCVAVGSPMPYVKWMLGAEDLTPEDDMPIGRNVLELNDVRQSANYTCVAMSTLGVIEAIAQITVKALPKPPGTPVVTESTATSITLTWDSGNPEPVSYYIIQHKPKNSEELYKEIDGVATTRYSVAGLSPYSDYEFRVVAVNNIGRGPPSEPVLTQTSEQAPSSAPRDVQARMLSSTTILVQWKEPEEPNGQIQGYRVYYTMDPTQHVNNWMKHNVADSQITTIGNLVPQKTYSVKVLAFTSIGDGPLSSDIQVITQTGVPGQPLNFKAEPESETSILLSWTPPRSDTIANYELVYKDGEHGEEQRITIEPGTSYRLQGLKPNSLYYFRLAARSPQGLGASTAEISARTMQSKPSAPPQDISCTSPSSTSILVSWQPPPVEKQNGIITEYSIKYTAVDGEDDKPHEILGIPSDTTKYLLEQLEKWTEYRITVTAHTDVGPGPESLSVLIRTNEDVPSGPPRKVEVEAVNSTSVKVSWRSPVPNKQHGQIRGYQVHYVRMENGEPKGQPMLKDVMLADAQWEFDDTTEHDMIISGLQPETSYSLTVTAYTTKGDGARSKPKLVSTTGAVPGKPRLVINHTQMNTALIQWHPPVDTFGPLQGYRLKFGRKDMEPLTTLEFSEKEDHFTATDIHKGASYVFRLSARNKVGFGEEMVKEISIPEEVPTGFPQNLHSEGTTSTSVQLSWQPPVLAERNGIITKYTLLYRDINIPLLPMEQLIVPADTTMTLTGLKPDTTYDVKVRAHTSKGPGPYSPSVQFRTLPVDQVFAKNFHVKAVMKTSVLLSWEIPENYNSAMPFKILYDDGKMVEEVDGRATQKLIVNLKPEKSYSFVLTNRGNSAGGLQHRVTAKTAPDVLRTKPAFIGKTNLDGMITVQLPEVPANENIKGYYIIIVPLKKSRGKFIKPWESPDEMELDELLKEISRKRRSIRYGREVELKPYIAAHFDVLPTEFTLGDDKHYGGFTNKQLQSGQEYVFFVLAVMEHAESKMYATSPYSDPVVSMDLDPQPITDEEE
Description: quartz crystal microbalance; SLITRK1 ECD-Fc (about 200 fmol) immobilised on the 27 MHz gold resonator through anti-human IgG Fc-HRP; ECD-His6 proteins added in solution; 50 mM Tris-HCl pH 7.6, 15 mM NaCl, 140 mM KCl, 0.5 mM MgCl2, 2 mM CaCl2; 25 ± 1 °C; kon and koff from 1/τ against concentration, KD = koff/kon; each sheet row is one experiment. As to conditions: both partners purified.

For assay [2], the target named is human Neurofascin ECD-His6 (human, UniProt O94856 25-1217, Mammalian-expressed glycoprotein is likely. C-terminal His6 tag omitted. The limits are not printed. The paper names catalogue 8208-NF-050 as Neurofascin 155, so the chain runs from after the signal p). The assay is described as above. Conditions: both partners purified.

“And” between values parts separate entries of the source, which are not always exact repeats. Identical values can stand only once.

B1: SLITRK1 ECD-immunoglobulin Fc domain-fusion protein (SLITRK1-WT-Fc) (Fc fusion, human, UniProt Q96PX8 18-616, looked up)
chain: NVTGDVCKEKICSCNEIEGDLHVDCEKKGFTSLQRFTAPTSQFYHLFLHGNSLTRLFPNEFANFYNAVSLHMENNGLHEIVPGAFLGLQLVKRLHINNNKIKSFRKQTFLGLDDLEYLQADFNLLRDIDPGAFQDLNKLEVLILNDNLISTLPANVFQYVPITHLDLRGNRLKTLPYEEVLEQIPGIAEILLEDNPWDCTCDLLSLKEWLENIPKNALIGRVVCEAPTRLQGKDLNETTEQDLCPLKNRVDSSLPAPPAQEETFAPGPLPTPFKTNGQEDHATPGSAPNGGTKIPGNWQIKIRPTAAIATGSSRNKPLANSLPCPGGCSCDHIPGSGLKMNCNNRNVSSLADLKPKLSNVQELFLRDNKIHSIRKSHFVDYKNLILLDLGNNNIATVENNTFKNLLDLRWLYMDSNYLDTLSREKFAGLQNLEYLNVEYNAIQLILPGTFNAMPKLRILILNNNLLRSLPVDVFAGVSLSKLSLHNNYFMYLPVAGVLDQLTSIIQIDLHGNPWECSCTIVPFKQWAERLGSEVLMSDLKCETPVNFFRKDFMLLSNDEICPQLYARISPTLTSHSKNSTGLAETGTHSNSYLDTSRVS
notes: signal peptide in the construct; human SLITRK1 extracellular domain, amino acid number 1-616 in NP_443142; Held on the resonator through anti-human IgG Fc; also called SLITRK1 ECD-Fc
The Kd is the free concentration of one partner at which half of the binding sites on the other are occupied at equilibrium, for simple one-to-one binding. As usually defined, the koff is a measure of how fast the partners let go of each other. The kon is the second-order rate constant of association. As to B1, in assay [1], the Kd was 110 nM and 202 nM and 144 nM; the koff was 0.00348 s⁻¹ and 0.00358 s⁻¹ and 0.00347 s⁻¹; the kon is 31600 M⁻¹ s⁻¹ and 17700 M⁻¹ s⁻¹ and 24100 M⁻¹ s⁻¹. Also, in assay [2], the Kd is 18.7 nM and 15.5 nM and 15.7 nM; the koff is 0.00278 s⁻¹ and 0.00247 s⁻¹ and 0.00243 s⁻¹; the kon was 154000 M⁻¹ s⁻¹ and 149000 M⁻¹ s⁻¹ and 159000 M⁻¹ s⁻¹.

B2: SLITRK1-A444S-Fc (Fc fusion, human, UniProt Q96PX8 18-616, looked up)
chain: NVTGDVCKEKICSCNEIEGDLHVDCEKKGFTSLQRFTAPTSQFYHLFLHGNSLTRLFPNEFANFYNAVSLHMENNGLHEIVPGAFLGLQLVKRLHINNNKIKSFRKQTFLGLDDLEYLQADFNLLRDIDPGAFQDLNKLEVLILNDNLISTLPANVFQYVPITHLDLRGNRLKTLPYEEVLEQIPGIAEILLEDNPWDCTCDLLSLKEWLENIPKNALIGRVVCEAPTRLQGKDLNETTEQDLCPLKNRVDSSLPAPPAQEETFAPGPLPTPFKTNGQEDHATPGSAPNGGTKIPGNWQIKIRPTAAIATGSSRNKPLANSLPCPGGCSCDHIPGSGLKMNCNNRNVSSLADLKPKLSNVQELFLRDNKIHSIRKSHFVDYKNLILLDLGNNNIATVENNTFKNLLDLRWLYMDSNYLDTLSREKFSGLQNLEYLNVEYNAIQLILPGTFNAMPKLRILILNNNLLRSLPVDVFAGVSLSKLSLHNNYFMYLPVAGVLDQLTSIIQIDLHGNPWECSCTIVPFKQWAERLGSEVLMSDLKCETPVNFFRKDFMLLSNDEICPQLYARISPTLTSHSKNSTGLAETGTHSNSYLDTSRVS
notes: signal peptide in the construct; human SLITRK1 extracellular domain, amino acid number 1-616 in NP_443142, with the patient-derived mutation A444S; A444S was found in patients with BPD, so it occurs in nature; also called SLITRK1 ECD-Fc A444S
With B2, in assay [2], the Kd was 13.3 nM and 16.3 nM and 13.1 nM; the koff is 0.00529 s⁻¹ and 0.00613 s⁻¹ and 0.00588 s⁻¹; the kon is 398000 M⁻¹ s⁻¹ and 376000 M⁻¹ s⁻¹ and 451000 M⁻¹ s⁻¹.

B3: SLITRK1-S330A-Fc (Fc fusion, human, UniProt Q96PX8 18-616, looked up)
chain: NVTGDVCKEKICSCNEIEGDLHVDCEKKGFTSLQRFTAPTSQFYHLFLHGNSLTRLFPNEFANFYNAVSLHMENNGLHEIVPGAFLGLQLVKRLHINNNKIKSFRKQTFLGLDDLEYLQADFNLLRDIDPGAFQDLNKLEVLILNDNLISTLPANVFQYVPITHLDLRGNRLKTLPYEEVLEQIPGIAEILLEDNPWDCTCDLLSLKEWLENIPKNALIGRVVCEAPTRLQGKDLNETTEQDLCPLKNRVDSSLPAPPAQEETFAPGPLPTPFKTNGQEDHATPGSAPNGGTKIPGNWQIKIRPTAAIATGSARNKPLANSLPCPGGCSCDHIPGSGLKMNCNNRNVSSLADLKPKLSNVQELFLRDNKIHSIRKSHFVDYKNLILLDLGNNNIATVENNTFKNLLDLRWLYMDSNYLDTLSREKFAGLQNLEYLNVEYNAIQLILPGTFNAMPKLRILILNNNLLRSLPVDVFAGVSLSKLSLHNNYFMYLPVAGVLDQLTSIIQIDLHGNPWECSCTIVPFKQWAERLGSEVLMSDLKCETPVNFFRKDFMLLSNDEICPQLYARISPTLTSHSKNSTGLAETGTHSNSYLDTSRVS
notes: signal peptide in the construct; human SLITRK1 extracellular domain, amino acid number 1-616 in NP_443142, with the patient-derived mutation S330A; S330A was found in patients (SCZ/BPD) and controls, so it occurs in nature; also called SLITRK1 ECD-Fc S330A
For the molecule B3, in assay [2], the Kd was 44.8 nM and 64.2 nM and 68.8 nM; the koff was 0.00635 s⁻¹ and 0.00732 s⁻¹ and 0.00627 s⁻¹; the kon was 142000 M⁻¹ s⁻¹ and 91200 M⁻¹ s⁻¹ and 114000 M⁻¹ s⁻¹.
